Patent US20230167164A1 (IMMUNOWAKE, published 2023)
Changes are numbered by the printed parent chain. Names and notes keep the numbering of the source.

T1: mouse PD-1 (mouse, UniProt Q02242 25-167, limits assumed)
T1 construct: also called mPD-1
T1 sequence (looked up): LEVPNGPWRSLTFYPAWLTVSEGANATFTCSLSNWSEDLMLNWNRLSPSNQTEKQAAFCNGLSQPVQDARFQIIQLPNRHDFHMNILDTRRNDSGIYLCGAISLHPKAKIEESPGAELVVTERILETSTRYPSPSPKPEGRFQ

B1: Fab-IL-23(WT)-Fc-CD4 Ab (other)
heavy 1: QVQLQQSGPEVVKPGASVKMSCKASGYTFTSYVIHWVRQKPGQGLDWIGYINPYNDGTDYDEKFKGKATLTSDTSTSTAYMELSSLRSEDTAVYYCAREKDNYATGAWFAYWGQGTLVTVSSASTKGPSVFPLAPSSKSTSGGTAALGCLVKDYFPEPVTVSWNSGALTSGVHTFPAVLQSSGLYSLSSVVTVPSSSLGTQTYICNVNHKPSNTKVDKKVEPKSCDKPGSGIWELKKDVYVVELDWYPDAPGEMVVLTCDTPEEDGITWTLDQSSEVLGSGKTLTIQVKEFGDAGQYTCHKGGEVLSHSLLLLHKKEDGIWSTDILKDQKEPKNKTFLRCEAKNYSGRFTCWWLTTISTDLTFSVKSSRGSSDPQGVTCGAATLSAERVRGDNKEYEYSVECQEDSACPAAEESLPIEVMVDAVHKLKYENYTSSFFIRDIIKPDPPKNLQLKPLKNSRQVEVSWEYPDTWSTPHSYFSLTFCVQVQGKSKREKKDRVFTDKTSATVICRKNASISVRAQDRYYSSSWSEWASVPCSGGGGSGGGGSGGGGSGGGGSGRAVPGGSSPAWTQCQQLSQKLCTLAWSAHPLVGHMDLREEGDEETTNDVPHIQCGDGCDPQGLRDNSQFCLQRIHQGLIFYEKLLGSDIFTGEPSLLPDSPVGQLHASLLGLSQLLQPEGHHWETQQIPSLSPSQPWQRLLLRFKILRSLQAFVAVAARVFAHGAATLSPDKTHTCPPCPAPEDEGGPSVFLFPPKPKDTLMISRTPEVTCVVVDVSHEDPEVKFNWYVDGVEVHNAKTKPREEQYNSTYRVVSVLTVLHQDWLNGKEYKCKVSNKALPAPIEKTISKAKGQPREPQVYVYPPSREEMTKNQVSLTCLVKGFYPSDIAVEWESNGQPENNYKTTPPVLDEDGSFALVSKLTVDKSRWQQGNVFSCSVMHEALHNHYTQKSLSLSPGK
heavy 2: QVQLQQSGPEVVKPGASVKMSCKASGYTFTSYVIHWVRQKPGQGLDWIGYINPYNDGTDYDEKFKGKATLTSDTSTSTAYMELSSLRSEDTAVYYCAREKDNYATGAWFAYWGQGTLVTVSSASTKGPSVFPLAPSSKSTSGGTAALGCLVKDYFPEPVTVSWNSGALTSGVHTFPAVLQSSGLYSLSSVVTVPSSSLGTQTYICNVNHKPSNTKVDKKVEPKSCDKTHTCPPCPAPEKKGGPSVFLFPPKPKDTLMISRTPEVTCVVVDVSHEDPEVKFNWYVDGVEVHNAKTKPREEQYNSTYRVVSVLTVLHQDWLNGKEYKCKVSNKALPAPIEKTISKAKGQPREPQVYVLPPSREEMTKNQVSLLCLVKGFYPSDIAVEWESNGQPENRYMTWPPVLDSDGSFFLYSKLTVDKSRWQQGNVFSCSVMHEALHNHYTQKSLSLSPGK
light: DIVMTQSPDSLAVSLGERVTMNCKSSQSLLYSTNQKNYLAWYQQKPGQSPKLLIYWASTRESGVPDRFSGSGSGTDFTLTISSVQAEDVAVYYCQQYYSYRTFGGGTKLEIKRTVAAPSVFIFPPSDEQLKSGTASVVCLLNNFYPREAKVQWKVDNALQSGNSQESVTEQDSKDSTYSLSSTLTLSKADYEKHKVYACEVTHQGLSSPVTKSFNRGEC
B2: Fab-IL-23(F60A)-Fc-CD4 Ab (other)
heavy 1: B1 heavy 1 with F291A
heavy 2: B1 heavy 2
light: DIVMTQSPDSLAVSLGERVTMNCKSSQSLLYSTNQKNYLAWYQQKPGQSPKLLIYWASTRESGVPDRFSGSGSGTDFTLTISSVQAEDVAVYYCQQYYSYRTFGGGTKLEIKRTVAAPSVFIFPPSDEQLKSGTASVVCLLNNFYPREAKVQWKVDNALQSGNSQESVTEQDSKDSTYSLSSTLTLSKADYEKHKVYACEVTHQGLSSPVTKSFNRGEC
B3: Fab-IL-23(E59A)-Fc-CD4 Ab (other)
heavy 1: B1 heavy 1 with E290A
heavy 2: B1 heavy 2
light: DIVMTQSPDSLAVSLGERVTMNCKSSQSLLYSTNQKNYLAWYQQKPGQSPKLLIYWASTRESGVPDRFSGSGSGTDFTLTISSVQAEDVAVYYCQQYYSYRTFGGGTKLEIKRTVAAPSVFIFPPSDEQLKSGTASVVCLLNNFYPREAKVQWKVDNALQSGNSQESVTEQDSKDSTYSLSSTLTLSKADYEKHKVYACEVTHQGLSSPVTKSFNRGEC
B4: Fab-IL-23(E59A/F60A)-Fc-CD4 Ab (other)
heavy 1: B1 heavy 1 with E290A, F291A
heavy 2: B1 heavy 2
light: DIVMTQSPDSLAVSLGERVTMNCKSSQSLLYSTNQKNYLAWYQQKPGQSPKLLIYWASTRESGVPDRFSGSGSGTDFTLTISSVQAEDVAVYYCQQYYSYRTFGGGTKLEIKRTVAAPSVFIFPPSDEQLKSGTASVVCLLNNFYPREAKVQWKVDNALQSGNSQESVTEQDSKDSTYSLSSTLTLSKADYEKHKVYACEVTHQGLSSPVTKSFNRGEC
B5: anti-PD-1 antibody HC-CDR3(D100G) (antibody, IgG1, V domains shown)
VH: QVQLVESGGGVVQPGRSLRLDCKASGITFSNSGMHWVRQAPGKGLEWVAVIWYDGSKRYYADSVKGRFTISRDNSKNTLFLQMNSLRAEDTAVYYCATNGDYWGQGTLVTVSS
VL: EIVLTQSPATLSLSPGERATLSCRASQSVSSYLAWYQQKPGQAPRLLIYDASNRATGIPARFSGSGSGTDFTLTISSLEPEDFAVYYCQQSSNWPRTFGQGTKVEIKR
notes: heterodimeric IgG1 as the WT antibody
B6: anti-PD-1 antibody HC-CDR3(D100R) (antibody, IgG1, V domains shown)
VH: B5 VH with G100R
VL: B5 VL
notes: as for B5
B7: anti-PD-1 antibody HC-CDR3(N99G) (antibody, IgG1, V domains shown)
VH: B5 VH with N99G, G100D
VL: B5 VL
notes: as for B5
B8: anti-PD-1 antibody HC-CDR3(D100N) (antibody, IgG1, V domains shown)
VH: B5 VH with G100N
VL: B5 VL
notes: as for B5
B9: PD-L2(mut1)-Fc (Fc fusion)
chain 1: LFTVTVPKELYIIEHGSNVTLECNFDTGSHVNLGAIVASLQKVENDTSPHRERATLLEEQLPLGKASFHIPQVQVRDEGQYQCIIIYGVAWDYKYLTLKVKASYRKINTHILKVPETDEVELTCQATGYPLAEVSWPNVSVPANTSHSRTPEGLYQVTSVLRLKPPPGRNFSCVFWNTHVRELTLASIDLQSQMEPRTHPTDKTHTCPPCPAPEDEGGPSVFLFPPKPKDTLMISRTPEVTCVVVDVSHEDPEVKFNWYVDGVEVHNAKTKPREEQYNSTYRVVSVLTVLHQDWLNGKEYKCKVSNKALPAPIEKTISKAKGQPREPQVYVYPPSREEMTKNQVSLTCLVKGFYPSDIAVEWESNGQPENNYKTTPPVLDEDGSFALVSKLTVDKSRWQQGNVFSCSVMHEALHNHYTQKSLSLSPGK
chain 2: B9 chain 1 with D215K, E216K, Y332L, T347L, N371R, K373M, T375W, E381S, A386F, V388Y
notes: also called T56V
B10: PD-L2(mut4)-Fc (Fc fusion)
chain 1: B9 chain 1 with S39V, Q41L
chain 2: LFTVTVPKELYIIEHGSNVTLECNFDTGSHVNLGAIVAVLLKVENDTSPHRERATLLEEQLPLGKASFHIPQVQVRDEGQYQCIIIYGVAWDYKYLTLKVKASYRKINTHILKVPETDEVELTCQATGYPLAEVSWPNVSVPANTSHSRTPEGLYQVTSVLRLKPPPGRNFSCVFWNTHVRELTLASIDLQSQMEPRTHPTDKTHTCPPCPAPEKKGGPSVFLFPPKPKDTLMISRTPEVTCVVVDVSHEDPEVKFNWYVDGVEVHNAKTKPREEQYNSTYRVVSVLTVLHQDWLNGKEYKCKVSNKALPAPIEKTISKAKGQPREPQVYVLPPSREEMTKNQVSLLCLVKGFYPSDIAVEWESNGQPENRYMTWPPVLDSDGSFFLYSKLTVDKSRWQQGNVFSCSVMHEALHNHYTQKSLSLSPGK
notes: also called PD-L2(T56V/S58V/Q60L)
B11: PD-L2(mut3)-Fc (Fc fusion)
chain 1: B9 chain 1 with V37T, Q41L
chain 2: B10 chain 2 with V37T, V39S
notes: also called Q60L
B12: PD-L2(mut2)-Fc (Fc fusion)
chain 1: B9 chain 1 with V37T, S39V
chain 2: B10 chain 2 with V37T, L41Q
notes: also called PD-L2(S58V)

Biological target: IL-23 receptor complex (UniProt P42701 24-662; Q5VWK5 24-629, limits assumed)
Experiment: cell-based or functional assay

IL-23 receptor complex, sequence (Q5VWK5 24-629 limits assumed, chain 2 of 2, other chains not shown): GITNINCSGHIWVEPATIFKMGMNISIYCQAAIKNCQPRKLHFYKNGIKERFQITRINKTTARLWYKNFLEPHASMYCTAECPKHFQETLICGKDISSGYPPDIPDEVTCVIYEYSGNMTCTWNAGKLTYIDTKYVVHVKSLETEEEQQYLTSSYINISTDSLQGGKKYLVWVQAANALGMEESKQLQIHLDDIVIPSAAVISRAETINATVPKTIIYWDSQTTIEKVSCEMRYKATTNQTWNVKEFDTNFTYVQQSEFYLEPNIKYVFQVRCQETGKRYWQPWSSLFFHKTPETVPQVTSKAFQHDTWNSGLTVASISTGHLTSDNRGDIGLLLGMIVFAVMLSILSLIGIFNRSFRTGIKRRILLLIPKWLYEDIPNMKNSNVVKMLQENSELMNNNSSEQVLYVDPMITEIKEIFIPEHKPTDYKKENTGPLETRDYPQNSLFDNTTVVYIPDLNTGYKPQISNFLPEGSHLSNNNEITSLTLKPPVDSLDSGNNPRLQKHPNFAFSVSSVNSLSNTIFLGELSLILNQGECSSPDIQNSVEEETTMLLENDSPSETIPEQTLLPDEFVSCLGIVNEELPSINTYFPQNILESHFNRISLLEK

| Binder | IFN-γ release, % of rIL-23, activated CD8+ T cells |
| --- | --- |
| B1 | 21% |
| B2 | 1.5% |
| B3 | 2% |
| B4 | 0% |

Biological target: T2, human PD-1 (human, UniProt Q15116 25-167, limits assumed)
T2 construct: nivolumab is called an anti-human PD-1 antibody; also called hPD-1
Experiment: Biacore and cell-based assays, calibrated by wildtype nivolumab binding affinity

T2 sequence (Q15116 25-167 limits assumed): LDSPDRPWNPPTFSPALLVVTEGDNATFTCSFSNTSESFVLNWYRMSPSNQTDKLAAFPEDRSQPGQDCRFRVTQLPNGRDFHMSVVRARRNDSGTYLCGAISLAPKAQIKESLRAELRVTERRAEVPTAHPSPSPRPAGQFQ

| Binder | Kd |
| --- | --- |
| B5 | 130 nM |
| B6 | 910 nM |
| B7 | 2300 nM |
| B8 | 25 nM |

Biological target: T3, CD8 on CD8+ T cells (human, UniProt P01732 22-235)
T3 construct: whole, on cells
Experiment: FACS on CD8+ T cells

T3 sequence (P01732 22-235): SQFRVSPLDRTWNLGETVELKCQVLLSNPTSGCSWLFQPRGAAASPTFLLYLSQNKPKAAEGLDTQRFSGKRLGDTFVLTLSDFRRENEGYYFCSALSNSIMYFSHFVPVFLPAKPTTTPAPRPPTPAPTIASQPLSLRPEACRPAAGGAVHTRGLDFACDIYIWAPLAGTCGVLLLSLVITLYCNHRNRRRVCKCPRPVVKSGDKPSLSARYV

| Binder | binding result |
| --- | --- |
| B1 | no binding |
| B4 | no binding |

Biological target: T1, mouse PD-1
Experiment: PD-L2-Fc format, calibrated on PD-L2(wt)-Fc binding affinity

| Binder | Kd |
| --- | --- |
| B9 | 430 nM |
| B10 | 220 nM |
| B11 | 320 nM |
| B12 | 230 nM |

Biological target: T2, human PD-1
Experiment: as above

| Binder | Kd |
| --- | --- |
| B9 | 520 nM |
| B10 | 255 nM |
| B11 | 490 nM |
| B12 | 350 nM |
